Results: patent US20220252584, “METHODS AND DEVICES FOR […] A PATHOGEN AND ITS MOLECULAR COMPONENTS” (THE REGENTS OF THE UNIVERSITY OF CALIFORNIA, published 2022)

How the values were obtained:
SARS-CoV-2 spike RBD = SARS-CoV-2 spike RBD (SARS-CoV-2, UniProt P0DTC2 P0DTC2:319-541)
SARS-CoV spike RBD = SARS-CoV spike RBD (SARS-CoV, UniProt P59594 P59594:306-527)
[1] = molecular target: SARS-CoV-2 nucleocapsid (N) protein (SARS-CoV-2, UniProt P0DTC9 P0DTC9:1-419)
SARS-CoV N protein = SARS-CoV N protein (SARS-CoV, UniProt P59595 P59595:1-422)

B1: Aptamer-S (Aptamer 1C) (ssDNA)
DNA: CAGCACCGACCTTGTGCTTTGGGAGTGCTGGTCCAAGGGCGTTAATGGACA
B1: binds (SARS-CoV-2 spike RBD); binds (SARS-CoV spike RBD).

B2: Aptamer-N (Aptamer Np-48) (ssDNA)
DNA: GCTGGATGTCGCTTACGACAATATTCCTTAGGGGCACCGCTACATTGACACATCCAGC
modifications: 3' amino linker, coupled to PBASE-graphene
B2: binds [1].

B3: Aptamer-N (Aptamer Np-48) (ssDNA)
DNA: B2 DNA
B3: binds (SARS-CoV N protein).
